According to the supplement of paper PMC9170038:

Tested on: K4 kissing-loop RNA reporter
Assay: apparent KD of K4 kissing-loop reporter; higher = weaker reporter binding
Conditions: Eterna round: R107
Method: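 RNA-MaP round R107: designed RNA switches with theophylline, tryptophan, arginine or FMN aptamers are transcribed on-chip within common flanks. They are titrated with a labelled K4 kissing-loop RNA reporter in RNA-MaP buffer (100 mM Tris pH 7.5, 80 mM KCl, 4 mM MgCl2), without ligand or with the indicated ligand. Median apparent KD per design.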

[1] = input ligand: theophylline 20 uM
[2] = input ligand: tryptophan 2.4 mM
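Note: bound reporter read as fluorescence of individual clusters on recovered sequencing chips by microscopy, with normalized cluster intensities fitted with a binding model.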

Row | Sequence | apparent KD of K4 kissing-loop reporter (input ligand: FMN 200 uM) [µM] | apparent KD of K4 kissing-loop reporter (input ligand: arginine 13.2 mM) [µM] | apparent KD of K4 kissing-loop reporter (input ligand: none) [µM] | apparent KD of K4 kissing-loop reporter [1] [µM] | apparent KD of K4 kissing-loop reporter [2] [µM]
1 | GGUCGGAGUGAUGUUCCGAGCUUCAGUCAUCGAGGACCGGUACGGCCGCCACUCGUCUACUAUGACGUAUCACCCUCCACGUGUU [theeternabot_sameState_KL_Trp_A_33] | 0.15 | 0.142 | 0.146 | 0.145 | 0.125
2 | AAACAACGUGACGAUACCAGCUUACUCGGCAAGCCAGUGAUGUUGGUGAAAAGGAGUCAAAGCCCUUGGCAGCGUCGAAGGUCUG [Georbeer] | 0.332 | 0.326 | 0.427 | 0.15 | 0.325
3 | UGUGUUUACCUGACUCAGUGAUGUUGAGAAGGAGCGUGAGAAAUCACAGGUAGGUCGCUCAACCUAAAUUCAGGUGAGCACUAAA | 0.268 | 0.197 | 0.325 | 0.277 | 0.253
4 | AAAUUCUUUUUUUUAUUUAACUUUUCAGAAGGAGCGUGGUAGUACACAGGUAGGUCGCUGAAUUUUGGACUAGUGAUGUUAGUUA [JR_SSArginiA_Sub007] | 0.156 | 0.154 | 0.158 | 0.228 | 0.153
5 | AAUAUAAAGCAGUGAUGUUGCUUAUGAGAAGGAGCGCACGAAAGUGCAGGUAGGUCGCUCAGCCAAGUGGACGAAAACGUCCACA [whbob_SS_Arginine_A_sa106] | 0.0821 | 0.0925 | 0.0863 | 0.0853 | 0.0721
6 | CGGCGCGGCGCGGCCGCCACUGCGCCUGGGUGCUCGCCGAGUGAUGUUCGUCGGCGGUUGGGUGGCAGGACCGGGUGCCGGCCCG [BDazzled - #18 SS Tryptophan B] | 0.93 | 0.703 | 0.827 | 1.03 | 0.768
7 | GGACCGCCAGUGAUGUUGGAGAUAAACUCCAAGGAUAUGACGAAAGUCAGAAGGUGGUAAUAAGACGUCAAAGACGUCAGGUCCA [FmnA 21 #SwitchBubble #K4Early] | 0.97 | 0.206 | 0.361 | 0.301 | 0.266
8 | GGAUAGGAUAGAGGAUAUGGGUUAGGCAAGAAUAACUUGUCUUGUAAAUCCAUGAGGAGUGAUGUUCCAGAAGGCUGUCCUAUCG [MatMod 5 - Jieux - Exclusion - FMN B] | 0.301 | 0.113 | 0.112 | 0.114 | 0.0936
9 | GAAUGAAAUAUCUGGCCCUAUCAGAAUUGGAAGGAUAUGACGGUCAUCAGAAGGUCCAACUCGUAGUGAUGUUGCGGGUUUUAAA [theeternabot_exclusion_KL_FMN_A_21] | 0.0912 | 0.0463 | 0.0414 | 0.0428 | 0.0362
10 | AAGAGGUAGGCGGCCGCCACUAGUUGUGAACACAUACGAGCCAGUGAUGUUGGUAUUGUGGGCGGUAGGACCGGGCCUACCUGAA [Exclusion - Tryptophan B (Freestyle 19)] | 0.319 | 0.336 | 0.358 | 0.322 | 0.281
11 | AAAUUUAAUAUAUUUAAUUAAUUAUGUGAUACCAGACAUUUAUAAGUCCCUUGGCAGCACUUUGCAGUGAUGUUGCAUAUAAUAA [JR_SSTheophyA_Sub013] | 0.089 | 0.185 | 0.121 | 0.157 | 0.0992
12 | UAUUAAUAUUUUUCAGUGAUGUUAAUUGAUACCAGCCCGAAACCGGGCCCUUGGCAGCGAGUGAUGUUGGUUGUCAGCAUAAAUA [KL-XTheo-A13] | 0.86 | 0.596 | 0.836 | 0.676 | 0.667
13 | GACUACCGGGCGGCCGCCACUGGGCUCCGAGUGAUGUUCGGAAAGACUCAUACACUGCUGUCAGACAGGACCGGGCCAAGGCGCA [theeternabot_sameState_KL_Trp_B_5] | 0.145 | 0.17 | 0.172 | 0.201 | 0.151
14 | AAGGUUGUGCAUGGGAGUGAUGUUCCCACGCAGGAUAUCGCUCACGCGAGAAGGGCGAGCACAACCGCUCAAGAAACUUGAGCAA [Omei KL FMN A SS C v2] | 0.133 | 0.118 | 0.133 | 0.106 | 0.126
15 | AAGUCACAGGCAGGAUAUGCUUAGUAAUAAGGCCAUAUAUACGUAUAGAGUGAUGUUUUGUACCAGGCAGAAGGGCUACAUCCGU [FMN B Excl V3 (+2GCs)] | 0.876 | 0.503 | 0.882 | 0.65 | 0.597
16 | CACCGCAACUGAAGGAGCGCGCCAGUGAUGUUGGACGGCUUUGUCAAGGAAACUGCACCGGUGCAGGUAGGUCGCAGUUCGCGGC [Ededisa] | 0.319 | 0.256 | 0.366 | 0.278 | 0.259
17 | AGUGUUAGGUUAGAUACCAGCCGUCUAUGGAUAAUCCUCAGACCGCCAGUGAUGUUGGCAGGCCCUUGGCAGCUAACAGAACAGA [Reinonor] | 0.202 | 0.218 | 0.24 | 0.164 | 0.213
